This note sets out measurements from patent US20220403044A1 (ACADEMIA SINICA, published 2022).

Assay [1] deals with T1, EGFR-Flag (UniProt P00533 25-1210, limits assumed).
T1 construct: whole, on cells; also called exogenous EGFR; not shown: Flag tag
The assay can be described thus: co-IP with anti-V5, Western blot with anti-Flag, transfected 293T cells (FIG. 1D). How it is done:
(§1) FIGS. 1A to 1H. EpEX binds to EGFR through its EGF-like domain I. (FIG. 1A) Immunoprecipitation (IP) of affinity cross-linked EpEX-Fc bound to EGFR from HCT116 cells. (FIG. 1B) EpEX-Fc was added to EGFRECD-coated ELISA plates and detected by TMB colorimetric peroxidase assay. (FIG. 1C) 293T cells were transfected with EGFR-Flag and EpCAM-V5. IP was performed with anti-V5 antibody (left panel) or anti-Flag antibody (right panel) followed by Western blotting. (FIG. 1D) 293T cells were transfected with EGFR-Flag and EGF domain-deleted mutant EpCAM-V5. The protein interaction was probed by IP with anti-V5 antibody and Western blotting with anti-Flag antibody. (FIG. 1E) In culture media from 293T cells with EGFRECD-Flag and EpEX-Fc transfection, IP was performed with Dynabeads® Protein G and detected by Western blotting with anti-Flag antibody. (FIG. 1F) 293T cells were transiently transfected with EGFRECD-Flag and EGF domain-deleted mutant EpEX-Fc. […] (FIG. 1G) Purified EGFRECD-6×His and EGF domain-deleted mutant EpEX-Fc were incubated and IP was performed with Dynabeads® Protein G and detected by Western blotting. (FIG. 1H) HCT116 cells were starved and treated with wild-type or EGF domain-deleted mutant EpEX, and EGFR signaling was analyzed by Western blotting. […]

Assay [2] has as its target T1, EGFR-Flag. The assay can be described thus: co-IP from HEK293T cells overexpressing EpCAM-V5 and EGFR-Flag (FIG. 1C). How it is done: as §1

B1: EGF-like domain II-deleted EpCAM mutant (EpCAMΔEGFII), V5-tagged (other, UniProt P16422 24-314, looked up)
chain: QEECVCENYKLAVNCFVNNNRQCQCTSVGAQNTVICSKLAAKSERVRTYWIIIELKHKAREKPYDSKSLRTALQKEITTRYQLDPKFITSILYENNVITIDLVQNSSQKTQNDVDIADVAYYFEKDVKGESLFHSKKMDLTVNGEQLDLDPGQTLIYYVDEKAPEFSMQGLKAGVIAVIVVVVIAVVAGIVVLVISRKKRMAKYEKAEIKEMGEMHRELNA
notes: whole, on cells; also called EGF domain-deleted mutant EpCAM-V5; not shown: V5 tag
Take B1: the binding result in the assay with EGFR-Flag [1] is on record as “binds”.

B2: EpCAM-V5 (other, UniProt P16422 24-314, looked up)
chain: QEECVCENYKLAVNCFVNNNRQCQCTSVGAQNTVICSKLAAKCLVMKAEMNGSKLGRRAKPEGALQNNDGLYDPDCDESGLFKAKQCNGTSMCWCVNTAGVRRTDKDTEITCSERVRTYWIIIELKHKAREKPYDSKSLRTALQKEITTRYQLDPKFITSILYENNVITIDLVQNSSQKTQNDVDIADVAYYFEKDVKGESLFHSKKMDLTVNGEQLDLDPGQTLIYYVDEKAPEFSMQGLKAGVIAVIVVVVIAVVAGIVVLVISRKKRMAKYEKAEIKEMGEMHRELNA
notes: whole, on cells; also called exogenous EpCAM; not shown: V5 tag
Take B2: the binding result with EGFR-Flag [2] was “binds”.
